Assay results published in article PMC9674830 (2022).
Positions of bridges follow the written chain, without caps; N, C: chain ends. Non-standard residues stand in square brackets, D forms with d. No end group written: not given here. pentenylalanine = pentenylalanine, unnatural amino acid di-substituted at Cα, crosslinked by ring-closing metathesis

B1: C-terminal domain of subunit 1 of the general transcription regulator TFIIF (RAP74-CTD) (domain or fragment)
chain: GDVQVTEDAVRRYLTRKPMTTKDLLKKFQTKKTGLSSEQTVNVLAQILKRLNPERKMINDKMHFSLKE

Experiments:
[1] = target: B1; test: NMR
[2] = target: B1; test: ITC
γCtrl = test: NMR

| Kd [1] | Binder | also measured |
| --- | --- | --- |
| > 1000 µM | KKPGASAAAAQEAQLAQLAQELQAAQAAKKY [peptide δ_(ctrl)] |  |
| > 1000 µM | KKPGASLAALQALQALQAAQAAKKY [peptide (P3-7)2] |  |
| 202 µM | KKPGASASW[pentenylalanine]QLF[pentenylalanine]EEQAAQAAKK (staple 10-14) [peptide γ_(Stpl)] |  |
| > 1000 µM | SAAASSSWHTLFTAEEGQLYG [AR-WHTLF peptide] |  |
| > 1000 µM | KKPGASLAALQALQALQALQALQAAQAAKKY [peptide (P3-7)3] |  |
|  | KKPGASLAALQELQLLQLLQELQAAQAAKKY (designed binder) [peptide δ] | Kd [2]: 256 µM |
| 626 µM | KKPGASLSWLQLFQEEQAAQAAKK (designed binder) [peptide γ] |  |
|  | B1 | Kd (γCtrl): > 1000 µM |
| > 1000 µM | KKPGASAAAAQE[pentenylalanine]QLA[pentenylalanine]LAQELQAAQAAKKY (staple 13-17) [peptide δ_(Stpl)] |  |
